# Data as given in US20240355418A1, “MULTIPLEX, TEMPORALLY RESOLVED MOLECULAR SIGNAL RECORDER AND RELATED METHODS” (University of Washington, priority 2021, published 2024).
# Assays:
# [1] = system: HEK293T and monoclonal lineage tracing cell line (iPE2(+) LT(+)); test: Cell doubling time with or without Doxycycline; assay type: cell-based
# Text: (A). Cell doubling times measured for HEK293T and the monoclonal lineage tracing cell line (iPE2(+) LT(+)), with or without Doxycycline (Dox). […] P values were obtained using the two-tailed Student's t-test with Bonferroni correction: only *P<0.05 are shown. The center and error bars are mean and standard deviations, respectively, from n=3 independent experiments.
# [2] = system: PE2(+) 3N-TAPE-1-pegRNA(+) HEK293T; test: Editing and recovery of 12× and 20×TAPE-1 arrays, 40 days, PacBio sequencing; assay type: cell-based; conditions: 40 days culture
# Text: To evaluate the extent to which such issues might be limiting in practice, a synthetic minisatellite in the form of 12 or 20 repeats of the 14-bp TAPE-1 monomer was generated. 12×TAPE-1 was synthesised as single-stranded DNA (IDT) and 20×TAPE-1 as a plasmid (GenScript). PCR amplicons of each array were cloned into the piggyBAC vector via Gibson assembly. Of note, cloned constructs were used “as is”, even though it is possible that some degree of variation in repeat number was already present (FIG. 11A-11B). […] PCR amplification of TAPE-1 was followed by standard library construction and sequencing on the Pacific Bioscience Sequel platform to obtain circular consensus sequencing (CCS) reads. […]
# CCS reads were grouped within each replicate based on a degenerate 8-bp barcode (TargetBC), as these presumably derived from the same integration. On average, each TargetBC group had 3.1±3.4 and 3.8±5.7 reads for ˜ 12×TAPE-1 and ˜20×TAPE-1, respectively.
# For long-read amplicon sequencing library preparation, a two-step PCR protocol was used: the first PCR reaction (KAPA Robust polymerase) included 1.5 uL of cell lysate, 0.04 to 0.4 uM of forward and reverse primers in a final reaction volume of 25 μL. […] After the first PCR step, products were assessed on 6% TBE-gel and purified using 0.6×AMPure (Beckman Coulter) and added to the second PCR reaction that appended PacBio sample indexes. […]
Molecule,Effect on cell doubling time [1],Edits per array [2] [edits],Repeats of TAPE-1 monomers recovered (average) [2] [repeats]
"C[C@H]1c2cccc(O)c2C(=O)C2=C(O)[C@]3(O)C(=O)C(C(N)=O)=C(O)[C@@H](N(C)C)[C@@H]3[C@@H](O)[C@@H]21 [Dox, Doxycycline hyclate]",lengthened the cell doubling time,–,–
"12×TAPE-1: 12 repeats of the 14-bp TAPE-1 monomer, SEQ ID NO: 118 (nucleic acid) DNA: CACCNNNNNNNNGGATGATGGTGAGCACGTGATGGTGAGCACGTGATGGTGAGCACGTGATGGTGAGCACGTGATGGTGAGCACGTGATGGTGAGCACGTGATGGTGAGCACGTGATGGTGAGCACGTGATGGTGAGCACGTGATGGTGAGCACGTGATGGTGAGCACGTGATGGTGAGCACGTGATGGTGAGCGCTTTAAGGC",–,4.5±1.3,8.4±3.3
